The text below walks through data of CN1948343A (BEIJING ANBOTE GENE ENGINEERIN, dated 2007).

The target of assay [1] is T1, 重组人TNF-α (human, UniProt P01375 77-233). Description: cell-based or functional assay.
The target of assay [2] is T1, 重组人TNF-α. Nature of the assay: competition ELISA: inhibition of binding of 1 μg/ml TNF-α to coated L929 TNF receptor extract.

T1 sequence (P01375 77-233 limits assumed): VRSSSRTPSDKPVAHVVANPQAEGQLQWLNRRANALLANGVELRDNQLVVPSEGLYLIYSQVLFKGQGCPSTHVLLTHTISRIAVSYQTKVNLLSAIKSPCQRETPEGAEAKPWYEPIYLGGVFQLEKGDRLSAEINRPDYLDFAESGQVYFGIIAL

B1: 抗TNF-α鼠源单链抗体 TNF-scFv (scFv, part only; not given: C-terminal tail of construct, part only)
scFv, part: QIQLVQSGPELKKPGETVKISCKASGYTFTHYGMNWVKQAPGKGLKWMGWINTYTGEPTYADDFKEHFAFSLETSASTVFLQINNLKNEDTATYFCARERGDAMDYWGQGTSVTVSSTSGGGGSGGGGSGGGGSSRSIVMTQTPKFLLVSAGDRVTITCTASQSVSNDVVWYQQKPGQSPKMLMYSAFNRYTGVPDRFTGRGYGTDFTFTISSVQAEDLAVYFCQQDYNSPRTFGGGTKLEIK
Usually IC50 stands for the concentration that gives 50% inhibition. A higher IC50 goes with weaker potency in that assay. For the molecule B1, in the assay with 重组人TNF-α [1], the MTT法: 抑制TNF-α对L929细胞的细胞毒作用, 50%抑制的浓度(IC50) worked out at 40 nM. In the assay with 重组人TNF-α [2], this molecule returned an IC50 of 3200 nM.

B2: 抗TNF-α基因工程四价单链抗体 TNF-TeAb (scFv)
chain: B1 scFv, part
Consider B2, for which the “MTT法: 抑制TNF-α对L929细胞的细胞毒作用, 50%的抑制浓度(IC50)” value with 重组人TNF-α [1] came out at 2.5 nM. This molecule had an IC50 in the assay with 重组人TNF-α [2] of approximately 400 nM.
